The values that follow come from publication PMC5758891.

This data set addresses T1, Lhr-(1-856) (UniProt A0QT91 1-856).
T1 sequence: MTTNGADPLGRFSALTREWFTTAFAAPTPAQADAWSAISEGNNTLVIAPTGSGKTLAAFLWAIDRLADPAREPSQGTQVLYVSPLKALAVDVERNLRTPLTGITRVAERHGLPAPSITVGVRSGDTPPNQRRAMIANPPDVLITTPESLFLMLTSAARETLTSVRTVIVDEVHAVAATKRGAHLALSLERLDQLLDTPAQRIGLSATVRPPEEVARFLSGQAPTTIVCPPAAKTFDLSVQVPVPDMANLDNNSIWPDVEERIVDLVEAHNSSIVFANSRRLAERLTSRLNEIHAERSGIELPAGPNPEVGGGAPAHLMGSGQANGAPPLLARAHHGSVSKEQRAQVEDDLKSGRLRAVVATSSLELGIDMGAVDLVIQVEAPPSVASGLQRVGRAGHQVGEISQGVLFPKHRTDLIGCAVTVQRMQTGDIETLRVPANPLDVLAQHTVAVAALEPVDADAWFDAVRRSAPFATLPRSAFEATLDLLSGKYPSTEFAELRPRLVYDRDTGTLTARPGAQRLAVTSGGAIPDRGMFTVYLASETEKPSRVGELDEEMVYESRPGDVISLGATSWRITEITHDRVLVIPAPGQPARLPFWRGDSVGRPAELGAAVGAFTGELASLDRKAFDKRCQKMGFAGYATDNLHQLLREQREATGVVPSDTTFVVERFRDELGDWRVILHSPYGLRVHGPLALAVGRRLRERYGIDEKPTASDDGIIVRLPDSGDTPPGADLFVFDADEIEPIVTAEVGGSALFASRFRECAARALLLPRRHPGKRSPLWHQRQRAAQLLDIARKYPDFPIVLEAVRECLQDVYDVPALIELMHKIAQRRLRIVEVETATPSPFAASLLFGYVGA
The data set is described as follows: X-ray crystallography.

Turning to GACCTGCTGCGGATTG (ssDNA) [16-mer ssDNA], the binding result was “binds”.
